The values below come from patent US20240228592A1 (BIO THERA SOLUTIONS, published 2024).

The assay addresses T1, spike-RBD-mFC (sino biologicals) (SARS-COV-2, UniProt P0DTC2 319-541).
T1 construct: domain: RBD; also called spike protein in SARS-COV-2
Nature of the assay: ELISA, spike-RBD-mFC coated, anti-human kappa light chain-peroxidase detection.

B1: antibody 9 (antibody, V domains shown)
VH: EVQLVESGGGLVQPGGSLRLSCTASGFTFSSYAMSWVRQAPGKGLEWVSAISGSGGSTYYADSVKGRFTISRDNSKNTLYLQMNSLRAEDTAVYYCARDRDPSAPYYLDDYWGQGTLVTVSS
VL: DIQMTQSPSSLSASVGDRVTITCRASQGISSYLAWYQQKPGKAPKLLIYAASSLQSGVPSRFSGSGSGTDFTLTISSLQPEDFATYYCQQHYTTPPTFGQGTKVEIKR
By EC50 is commonly meant the concentration needed to bring the measured effect to its halfway point. Low values mean a more potent agent, high ones a less potent agent. Consider B1, for which the EC50 turned out to be 2.76 nM.
